Measurements taken from publication PMC3936608 (Pain, 2013).

Target: the molecule itself
Assay: SDS-PAGE + SEC

B1: Rat artemin (113 amino acids) (ligand, UniProt Q6AYE8 112-224, looked up)
chain: AGTRSSRARATDARGCRLRSQLVPVSALGLGHSSDELIRFRFCSGSCRRARSPHDLSLASLLDAGALRSPPGSRPISQPCCRPTRYEAVSFMDVNSTWRTVDHLSATACGCLG
stoichiometry N: 2
